# Biological target: full-length human leucine-rich repeat kinase 1 (LRRK1, residues 1-2015) (human) (UniProt Q38SD2)
# Test: mass photometry; undiluted 'monomer' and 'dimer' gel filtration fractions added to detergent-free buffer (20 mM Tris, 150 mM NaCl, 5 mM MgCl2 pH 8.3); OneMP mass photometer; dimer fraction held monomers and dimers at approximately a 1:2 ratio, alongside higher-order species
substance,measurement,value
"full-length human leucine-rich repeat kinase 1 (LRRK1, residues 1-2015) (from UniProt Q38SD2 1-2015) (enzyme)",stoichiometry N,2

# Source: PMC10412621
